The target of test [1] is T1, recombinant human integrin α5β1 (R&D) (human, UniProt P08648 42-995; P05556 21-728).
T1 construct: Bought recombinant heterodimer (R&D); It was used coated on plates and in solution in the phage ELISA, and as analyte or immobilized in BIAcore; also called alpha5beta1; a5b1
The test is described as follows: phage competition ELISA: Fab-phage incubated with serially diluted soluble human integrin α5β1, unbound phage captured on plate-coated integrin α5β1, anti-M13-HRP, A450. The procedure: Mutation at each position was generated by Kunkel mutagenesis using a separate oligonucleotide. Phage competition ELISA was utilized for evaluating all of the variants. […] Binding affinities (IC50) against human integrin α5β1 was determined.
(§1) MAXISORP™ microtiter plates were coated with recombinant human integrin α5β1 (R&D) at 5 μg/ml in PBS overnight and then blocked with PBST buffer (0.5% BSA and 0.05% Tween 20 in PBS) for an hour at room temperature. Phage from culture supernatants were incubated with serially diluted human integrin α5β1 in PBST buffer in a tissue-culture microtiter plate for an hour, after which 80 μl of the mixture was transferred to the target-coated wells for 15 minutes to capture unbound phage. The plate was washed with PBT buffer (0.05% Tween 20 in PBS), and HRP-conjugated anti-M13 (Amersham Pharmacia Biotech) was added (1:5000 in PBST buffer) for 40 minutes. The plate was washed with PBT buffer and developed by adding tetramethylbenzidine substrate (Kirkegaard and Perry Laboratories, Gaithersburg, Md.). The absorbance at 450 nm was plotted as a function of target concentration in solution to determine phage IC₅₀.

Test [2] concerns the target T1, recombinant human integrin α5β1 (R&D). The test can be described thus: phage competition ELISA IC50 of the Fab-phage against human integrin α5β1, relative to parental h7H5.v1; down arrow = loss, up arrow = improvement of binding affinity. How it is done: Substitutions with other resides at various positions was achieved by Kunkel mutagenesis using a separate oligonucleotide for each position. […] The IC50 values for binding affinity were determined by phage competition ELISA in FIG. 6. Two variants, h7H5.v2 and h7H5.v3 as indicated were selected to include glycine substitution at position 65 of CDR-H2, cloned into hIgG1 vector, and evaluated binding affinities using BIAcore instrument.
as §1
On the technique in general: In an ELISA, binding on a coated surface is turned into a signal by an enzyme label.

Test [3] has the same target. The test is described as follows: SPR (BIACORE-3000), antibody immobilized on CM5 chip (about 450 RU), human integrin α5β1 injected 300 nM to 0.29 nM, 25 °C, 1:1 Langmuir fit. How it is done:
(§2) FIG. 9 depicts the results of a BIACORE® analysis of humanized 7H5.v2, v4 and v5-IgG against human integrin α5β1.
(§3) Affinity determinations were performed by surface-plasmon resonance using a BIACORE™-3000 instrument. Immobilization was achieved by random coupling through amino groups using a protocol provided by the manufacturer. Two different formats were operated to study binding kinetics for antibody against human integrin α5β1. In FIGS. 3A, 7, and 9A, antibodies were immobilized on a CM5 sensor chip around 450 response units (RU), and 2-fold serial diluted concentrations of human integrin α5β1 (300 nM to 0.29 nM) in PBT buffer (0.05% Tween 20 in PBS) were injected with a flow rate of 30 μl/min at 25° C. In FIGS. 3B and 9B, human integrin […] was immobilized on a CM5 sensor chip around 800 RU, and 2-fold serial diluted concentrations of antibodies (200 nM to 0.2 nM) in PBT buffer (0.05% Tween 20 in PBS) were injected with a flow rate of 30 μl/min at 25° C. After each injection, the chip was regenerated using 10 mM Glycine-HCl buffer at pH 1.7. Binding response was corrected by subtracting the RU from a blank flow cell. Association rates (kₒₙ) and dissociation rates (koff) were calculated using a simple one-to-one Langmuir binding model (BIAcore Evaluation Software version 3.2). The equilibrium dissociation constant (Kd) was calculated as the ratio koff/kₒₙ.
(In general: In SPR one partner is held on a chip, and binding of the other changes the refractive index at the surface.)

Test [4] shares this target. The test is described as above. The procedure: FIG. 7 depicts the results of a BIACORE® analysis of humanized 7H5.v1, v2 and v3-IgG against human integrin α5β1. […] Humanized 7H5.v2 indicates the most binding affinity improvement in off-rate.
as §3
This is another data set of the same source.

The target is the same in test [5]. The test can be described thus: SPR (BIACORE-3000), human integrin α5β1 immobilized on CM5 chip (about 800 RU), antibody injected 200 nM to 0.2 nM, 25 °C, 1:1 Langmuir fit. The procedure:
as §2, §3

The target is the same in test [6]. The test is described as follows: SPR (BIACORE-3000), human integrin α5β1 (R&D) immobilized on CM5 chip (about 800 RU), antibody injected 200 nM to 0.2 nM, 25 °C, 1:1 Langmuir fit. How it is done: (§4) FIG. 3 depicts the results of a BIACORE® analysis of chimeric 7H5-IgG and humanized 7H5.v1-IgG against human integrin α5β1.
as §3

For test [7] the target is unchanged. The test is described as follows: SPR (BIACORE-3000), antibody immobilized on CM5 chip (about 450 RU), human integrin α5β1 injected 300 nM to 0.29 nM, 25 °C, 1:1 Langmuir fit. The procedure:
as §4, §3
This is another data set of the same source.

Where a chain is given by its changes, count along the chain named. In names and notes the source's numbering stands.

T1 sequence (P08648 42-995 limits assumed, chain 1 of 2): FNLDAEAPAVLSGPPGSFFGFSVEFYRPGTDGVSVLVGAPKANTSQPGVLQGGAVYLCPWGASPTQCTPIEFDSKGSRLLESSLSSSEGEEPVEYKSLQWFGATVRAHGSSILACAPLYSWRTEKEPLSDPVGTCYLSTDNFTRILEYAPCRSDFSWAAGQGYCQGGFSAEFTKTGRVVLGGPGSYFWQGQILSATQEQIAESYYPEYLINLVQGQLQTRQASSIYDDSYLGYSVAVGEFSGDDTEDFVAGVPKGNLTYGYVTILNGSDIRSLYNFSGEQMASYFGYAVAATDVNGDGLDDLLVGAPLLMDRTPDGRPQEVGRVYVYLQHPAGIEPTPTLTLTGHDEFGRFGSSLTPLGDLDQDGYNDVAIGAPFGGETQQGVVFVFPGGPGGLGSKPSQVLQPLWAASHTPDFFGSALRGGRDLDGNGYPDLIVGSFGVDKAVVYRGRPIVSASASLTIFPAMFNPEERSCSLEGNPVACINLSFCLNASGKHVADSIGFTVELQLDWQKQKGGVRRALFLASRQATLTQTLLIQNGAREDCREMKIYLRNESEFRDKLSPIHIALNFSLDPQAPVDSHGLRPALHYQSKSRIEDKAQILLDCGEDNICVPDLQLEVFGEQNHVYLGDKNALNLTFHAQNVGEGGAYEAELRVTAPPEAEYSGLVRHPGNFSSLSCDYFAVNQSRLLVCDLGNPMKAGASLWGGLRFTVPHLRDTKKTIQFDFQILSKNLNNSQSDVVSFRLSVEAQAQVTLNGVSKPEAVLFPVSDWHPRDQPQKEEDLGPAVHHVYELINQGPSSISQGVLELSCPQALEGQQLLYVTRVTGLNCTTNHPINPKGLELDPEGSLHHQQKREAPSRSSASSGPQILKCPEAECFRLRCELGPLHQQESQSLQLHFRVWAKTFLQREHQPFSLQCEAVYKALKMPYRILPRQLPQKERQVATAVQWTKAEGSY
T1 sequence (P05556 21-728 limits assumed, chain 2 of 2): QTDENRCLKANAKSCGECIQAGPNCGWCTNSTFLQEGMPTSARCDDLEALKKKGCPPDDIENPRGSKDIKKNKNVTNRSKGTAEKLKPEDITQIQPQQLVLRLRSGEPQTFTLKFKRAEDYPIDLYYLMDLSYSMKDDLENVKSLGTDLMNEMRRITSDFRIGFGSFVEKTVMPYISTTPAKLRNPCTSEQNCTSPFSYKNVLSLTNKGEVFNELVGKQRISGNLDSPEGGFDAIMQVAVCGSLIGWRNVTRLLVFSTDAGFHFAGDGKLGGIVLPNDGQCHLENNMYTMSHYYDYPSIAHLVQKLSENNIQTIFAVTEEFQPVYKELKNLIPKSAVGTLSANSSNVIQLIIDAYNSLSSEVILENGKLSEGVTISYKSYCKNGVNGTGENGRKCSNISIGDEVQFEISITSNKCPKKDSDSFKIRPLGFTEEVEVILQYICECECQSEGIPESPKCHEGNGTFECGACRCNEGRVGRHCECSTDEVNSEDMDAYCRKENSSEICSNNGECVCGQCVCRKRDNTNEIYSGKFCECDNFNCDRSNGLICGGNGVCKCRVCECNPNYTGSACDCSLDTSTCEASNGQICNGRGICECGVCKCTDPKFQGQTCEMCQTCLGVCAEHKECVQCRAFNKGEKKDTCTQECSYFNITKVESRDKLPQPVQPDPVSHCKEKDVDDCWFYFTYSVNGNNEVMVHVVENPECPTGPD

B1: CDR-L1:N28A (Fab, part only; not given: VH end, constant domains, phage fusion, V domains shown, not shown: another chain or arm of the molecule; large carriers)
VL: DIQMTQSPSSLSASVGDRVTITCKASQAVGSDVAWYQQKPGKAPKTLIYSTSYRYSGVPSRFSGSGSGTDFTLTISSLQPEDFATYYCQQYNSYPFTFGQGTKVEIK
VH: EVQLVESGGGLVQPGGSLRLSCAASGYTFTDYYLYWVRQAPGKGLEWIGGISPSNGGTTFNDNFENKATLSVDKSKNTAYLQMNSLRAEDTAVYYCTRDAYGDWYFDVWGQGT
Take B1: in test [1], the IC50 (read off the curve) turned out to be 200 pM. In addition, the Relative Fold to h7H5.v1 in test [2] came out at 2.1 fold.

B2: CDR-H2:N62S (Fab, part only; not given: VH end, constant domains, phage fusion, V domains shown, not shown: another chain or arm of the molecule; a dimerising Fc or GST; large carriers)
VL: B1 VL with A28N
VH: B1 VH with N63S
Turning to B2, the IC50 (read off the curve) in test [1] is 100 pM. The Relative Fold to h7H5.v1 in test [2] was 1.3 fold.

B3: CDR-H2:N54A (Fab, part only; not given: VH end, constant domains, phage fusion, V domains shown, not shown: another chain or arm of the molecule; a dimerising Fc or GST; large carriers)
VL: B1 VL with A28N
VH: B1 VH with N55A
For the molecule B3, the IC50 (read off the curve) in test [1] was 200 pM. In test [2], the Relative Fold to h7H5.v1 turned out to be 2.4 fold.

B4: humanized 7H5.v2-IgG (antibody, V domains shown)
VH: B1 VH with N55S, N61A, N63A, N66G
VL: DIQMTQSPSSLSASVGDRVTITCKASQSVGSDVAWYQQKPGKAPKTLIYSTSYRYSGVPSRFSGSGSGTDFTLTISSLQPEDFATYYCQQYSSYPFTFGQGTKVEIKR
notes: also called h7H5.v2
In the case of B4, in test [3], the dissociation constant (Kd) amounted to 770 pM, the koff amounted to 6.4e-05 s⁻¹ and the kon was 83000 M⁻¹ s⁻¹. Further, in test [4], the equilibrium dissociation constant (Kd) was determined as 770 pM, the koff was 6.2e-05 s⁻¹ and the kon is 81000 M⁻¹ s⁻¹. Moreover, in test [5], the Kd stood at 110 pM, the koff was 0.00015 s⁻¹ and the kon stood at 1.4e+06 M⁻¹ s⁻¹.

B5: h7H5.v5 (antibody, human IgG1, V domains shown)
VH: B1 VH with T30S, I48V, G49S, N55S, N61A, N63A, N66G, K67R, A68F, L70I
VL: B4 VL with T46L
notes: as human IgG1; also called humanized 7H5.v5-IgG
B5: in test [3], the Kd stood at 970 pM, the koff was 6.7e-05 s⁻¹ and the on-rate (kon) turned out to be 69000 M⁻¹ s⁻¹. Further, in test [5], the Kd turned out to be 260 pM, the koff was 0.00017 s⁻¹ and the kon stood at 660000 M⁻¹ s⁻¹.

B6: humanized 7H5.v4-IgG (antibody, V domains shown)
VH: B1 VH with T30S, I48V, N55S, N61A, N63A, N66G, K67R, A68F, L70I
VL: B4 VL with T46L
notes: also called h7H5.v4
Take B6: in test [3], the Kd was 730 pM, the koff was 5.5e-05 s⁻¹ and the kon came out at 75000 M⁻¹ s⁻¹. Further, in test [5], the Kd came out at 140 pM, the koff worked out at 0.00013 s⁻¹ and the association rate constant (kon) came to 930000 M⁻¹ s⁻¹.

B7: h7H5.v3 (antibody, human IgG1, V domains shown)
VH: B1 VH with N55S, N61A, N63S, N66G
VL: B4 VL
notes: as human IgG1; also called humanized 7H5.v3-IgG
For B7, in test [4], the Kd is 1070 pM, the koff was 7.5e-05 s⁻¹ and the kon amounted to 70000 M⁻¹ s⁻¹.

B8: h7H5.v1 (antibody, human IgG1, V domains shown)
VH: B1 VH
VL: B4 VL with S28N, S92N
notes: CDR graft of murine 7H5, as human IgG1; also called humanized 7H5.v1-IgG
With B8, in test [6], the Kd was determined as 230 pM, the koff amounted to 0.0002 s⁻¹ and the kon worked out at 870000 M⁻¹ s⁻¹. Further, in test [7], the Kd was 3670 pM, the koff worked out at 0.00018 s⁻¹ and the kon is 49000 M⁻¹ s⁻¹. In addition, in test [4], the Kd amounted to 1910 pM, the koff amounted to 8.2e-05 s⁻¹ and the kon was determined as 43000 M⁻¹ s⁻¹.

In general, Kd refers to the constant that tells how readily two partners part at equilibrium. The koff is the first-order rate constant of dissociation. For orientation: kon means a measure of how fast the partners come together.

The values are drawn from patent US20090098112A1 (Genentech, published 2009).
